# Biological target: recombinant GST-Smad2 fusion protein, phosphorylated in vitro by TβR-I kinase, Q15796
# Sequence (Q15796 whole entry, the tested form may be a part): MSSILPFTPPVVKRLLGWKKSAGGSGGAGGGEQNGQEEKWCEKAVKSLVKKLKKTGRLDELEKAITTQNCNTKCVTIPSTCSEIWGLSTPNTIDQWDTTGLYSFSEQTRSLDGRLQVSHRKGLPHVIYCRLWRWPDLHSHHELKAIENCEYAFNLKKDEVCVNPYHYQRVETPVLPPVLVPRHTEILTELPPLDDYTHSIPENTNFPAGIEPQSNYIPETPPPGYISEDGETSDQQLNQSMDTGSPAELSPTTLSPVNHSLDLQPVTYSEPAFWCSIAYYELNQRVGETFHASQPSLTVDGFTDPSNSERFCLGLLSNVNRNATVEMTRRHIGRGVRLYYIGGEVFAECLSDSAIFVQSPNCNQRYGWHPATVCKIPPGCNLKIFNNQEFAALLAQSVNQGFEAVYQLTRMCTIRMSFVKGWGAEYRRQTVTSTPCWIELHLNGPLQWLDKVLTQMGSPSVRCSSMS
protein,measurement,value
purified recombinant constitutively active TβR-I kinase (protein) CHNRTVIHHRVPNEEDPSLDRPFISEGTTLKDLIYDMTTSGSGSGLPLLVQRTIARTIVLQESIGKGRFGEVWRGKWRGEEVAVKIFSSREERSWFREAEIYQTVMLRHENILGFIAADNKDNGTWTQLWLVSDYHEHGSLFDYLNRYTVTVEGMIKLALSTASGLAHLHMEIVGTQGKPAIAHRDLKSKNILVKKNGTCCIADLGLAVRHDSATDTIDIAPNHRVGTKRYMAPEVLDDSINMKHFESFKRADIYAMGLVFWEIARRCSIGGIHEDYQLPYYDLVPSDPSVEEMRKVVCEQKLRPNIPNRWQSCEALRVMAKIMRECWYANGAARLTALRIKKTLSQLSQQEGIKM,"in vitro kinase assay, density of the pSmad2 band on Western blot","a band of approximately 58 kDa, the density of which is proportional to the amount of active enzyme"

# From US20090074790
